Results on 19 sequences are retold here after the DeepSol protein solubility set.

A short description of the data set: soluble on expression in E. coli; label from the status in PepcDB or PDB records.
As to “MRMRLMLLGGGNALGQALIRLGAEEDIGFLAPRPPEQGWDAASLTTLLDETRPDAVINLAFYHDWFQAEQVEAERLGAQERAVERLAELCQHYEILLVQPSSYRVFDGARATAYSEKDETLPLGLRGQALWRMEQSVRAACPRHVLIRFGWLLDESPNGLLGRFLSRAEQPQPLFLADDRRGNPTPVDDAARVVLSVLKQLDCQAPLWGTYHYGGLEATTTLALGQVILNEARTYRSNLIQEPSAEAHAARPDALDEPQHAVMVCKKILHTFGIKPRAWRAGLPALLDRYYRHV”, the “soluble on expression in E. coli” value is recorded as “not soluble”.
For “MRNIMAGFLIFLSSAAYADINLYGPGGPHTALLDAAKLYAEKTGIIVNVHYGPQNKWNEDAKKNADILFGASEQSALAIIRDHKDSFSEKDIQPLYLRKSILLVKKGNPKNIRSIDDLTRPGIGVIVNDGGGTSNTSGTGVWEDIAGRKGNIETVAAIRKNIILYAPNSGTARKALENQPGADVWITWADWAASNPEIGDVVEIAPDYVIWRDMNITVRQDANDETRRFAEWLQTDEAAPAFKKYGWTRKGT” the value was “not soluble”; for “MRNMKSTSHESESGKLLSISSCRPREMVLQRYSLGMTVTADRHLADKREEFAVEDISTGIFASGYGQVGDGRSFSFHIEHRSLVVEIYRPRVAGPVPQAEDVVAMAVRGLVDIDLTDERSLAAAVRDSVASAAPVSR”, “not soluble”.
For the sequence “MRNNPLIPKSKLPNLGTTIFTQMSALAQKHQAINLSQGFPDFDGPRYLHERLAYHVAQGANQYAPMTGAQALREAIADKTAEIYGYRPDDVSDITVTAGATEALYAAITALVRAGDEVICFDPSYDSYAPAVALSGGVLKRIALTPPHFRVDWQAFSALLSERTRLVILNTPHNPTATVWRQADIEALWQAIGEREIYVLSDEVYEHICFAAEGHASVLAHPQLRERAVAVSSFGKTFHMTGWKIGYCVAPAAISAEIRKVHQYLTFCVNTPAQLALADMLRAAPEHYRALPDFYRKKRDVLVNALAQSRLKVLPCEGTYFLLIDYSAVSTLNDVEFCQWLTEEVGVAAIPLSVFCAAPFPHQLIRLCFAKQESTLLAAAERLCKL”, the “soluble on expression in E. coli” value is “not soluble”.
Turning to “MRNNQPVTQKEVTYPPHFNLLSTTTLSSHIKYASKEFCDVAGYTLDELVNQPHNMVRHPDMPPEAFKDMWEHLKAGKSWMGMVKNRCKNGDHYWVDAFASPIKENGK”, the “soluble on expression in E. coli” value is reported as “not soluble”.
Regarding “MRNVMKATTLESKFPLLAVENGCIVSKEADVTVAFRVELPELFSVTGSEYEAVHSAWHKAVKVLPEYSIVHKQDFFIEEKYRPETDRDDLSFLSRSFERHFNERPFLNHFCYLFLTKTTKARSRQESTFSTLCKGRLVPKEIEDRETVTRFLEAVGQFEKIMNDSGFVTLRRLTTDEITGTETAAGIVEKYLSLSQHDTTVLKDIQLNPEEMRIGDDILCLHTLSDTEDLPGKVATDSRYERLSTDRSDCRLSFAAPVGLLLDCNHCYNQYIFIDDHGENLKRFEQTARNMHSLSRYSRSNQINKAWIEEYLNEAHSKGLTSVRCHCNVMAWSDDREELRRIKNEVGSQLALMECKPRHNTVDVPTLFWAAIPGNEGDFPFEESFYTFIPQALCFFTEETNYKDSLSPFGIKMADRMTGRPLHLDISDLPMKKGVISNRNKFVLGPSGSGKSFFMNHLVRQYYEQNSHIVLIDTGNSYQGLCELIHRKTKGEDGIYYTYTEEKPISFNPFFTDDYKFSVEKKDSIKTLLLALWKGEDEKVTKTESGELGSAVSAYIRRIQQNRDIAPSFDTFYEYMLNDYRKELAARDIKVSREDFNIDNFLTTLRQYYKGGRYDFLLNSNENIDLLHKRFIVFEIDAVKDNAELFPVVTIIIMEAFINKLRRLKGVRKMLICEEAWKALSSPSMSEYLKYLYKTVRKYFGEAIVVTQEVDDIISSPIVKEAIITNSDCKILLDQKKYMNKFDGIQSMLGLTDKEKSQILSINLANHPGRKYKEVWIGLNGVQSAVYATEVSAAEYLTYTTEESEKTEVFALAEELGGDLELAIKRLAETKYK”, the “soluble on expression in E. coli” value is “not soluble”.
Turning to “MRPLDENLRTSAASRPAQSLSVRGQPEAESGAFGEAIADAGRRRTQGQGGQTSADDARRDSVANGGNASAVPKADGFGADVPASTADAASPDARPAYERAIITRDQAAKRLQHSHPAGTRHLSQGREDGGEEIAQPAERAVVRSRETVQTSRDSVDEASGVTAREGGENGDPASGTVSDLLSMLTGAAPAVAAASQPEGRAKPASAVRDGSDGPAKAVGGISPAVPDGEHPQTGEGTGGSEPDRLFRFARADGKGQAVSMNISRDGERAVVENSRSSVKPGVETVTVLEARRYLGLAVNENATSVTTAIAGDSGWAEALQSSAATTKPEAWSQAGKTLNTLKIQMHPVDLGMVTATLRLKDDELQVDLKVETGEAFRQLRDDQSEMVKALRAQGFAVDQVNIVFNGGGDSASGGGGQSQAQAQLGYEGRERAGDDGQGRQPRDGGRAATERWAGNDATDDVPDGAERSRAGHVYM”, the “soluble on expression in E. coli” value is “not soluble”.
As for “MRPPISSGRIGDGGLDSCPEKKEEEKDSTSRLCSDLSDLRIERIGSTPAFQWISVYTKRPPMKQRFHHNIANSRLSHHAEKGKRDGLFISCVASEANLWALVMDAGTGFTSQVYKFSSTFLPKDWIMKQWEKNYYISSIAGANNGSSLVVMSKGTRYIQQSYKTGDSIPLKWMDKKWKEGFHVTSMTTGGSRWGVVMSRNSGFSEQVMEVDFLNPSEDINRRLESGYMITSMAATADQAALILSIPRRKITDEIQETLRTSSFPSSYVKDKWGKNMFITSICYGRTV”, the “soluble on expression in E. coli” value is “soluble”.
As to “MRPPLIERYRNLLPVSEKTPVISLLEGSTPLIPLKGPEEARKKGIRLYAKYEGLNPTGSFKDRGMTLAVSKAVEGGAQAVACASTGNTAASAAAYAARAGILAIVVLPAGYVALGKVAQSLVHGARIVQVEGNFDDALRLTQKLTEAFPVALVNSVNPHRLEGQKTLAFEVVDELGDAPHYHALPVGNAGNITAHWMGYKAYHALGKAKRLPRMLGFQAAGAAPLVLGRPVERPETLATAIRIGNPASWQGAVRAKEESGGVIEAVTDEEILFAYRYLAREEGIFCEPASAAAMAGVFKLLREGRLEPESTVVLTLTGHGLKDPATAERVAELPPPVPARLEAVAAAAGLL”, the “soluble on expression in E. coli” value is “soluble”.
Consider “MRQKGHRHGRTVSPCAGCKLLRRKCVKDSCVFAPYFPAKEPYKFAIVHKIFGASNVNKMLQELSENHRSDAVDSMVYEANARIQDPVYGCVGTISSLHRQLETLQTQLAFAQAELIHIRTLHRIHTKPPPYTASTVTFPSNKDFYSDIDMAVAYTDDAGDFLWSC”, for which the “soluble on expression in E. coli” value is “soluble”.
“MRQRYLALLSLFASLPAMAISFQTRLESIEWKVEGDQFECRLTQPITDFGAGEFVRRAGEQATFRLKASYNMLGNGSATLLAAAAPWQPGRGDINLGSVRVSNGDIPFNTSQAQAGRLISGLMDGRSPLIRHYNRDGGQMEVRLLPVKFSKAFSDYQACTAKLLPMNFDQVKQAEVGFPGGGIELDANAKARLDNMVAYLKADPTVNRIELDGHSDNSGNRLTNRDLSRRRALAVMDYFKAQGIPEQQITLRFHGERYPLAPNTNNANRARNRRVNVHLERVAPDERPVPVASSASAAHTS”: the “soluble on expression in E. coli” value is recorded as “not soluble”.
For “MRRFLTLTVALGFLSACEVSDPGPVAPLPKVPDSPPMSASAAQSAFASVSARVRPVAVRECQQRTQGANCDFKIQIDPDPKAPVNAYQTVGKNGQPLIIFTRSMIATARNADELAFVMGHEAAHHIRGHLARQNASAIAGAVILGGLVGLAGGGASTIDAATQIGASVGARTYSKEYELEADELGTVITHKAGYNPLVGAHFFSRIPDPGDRFLGSHPPNAARIQTVQRTAGSLGLTQLEHHHHHH”, the “soluble on expression in E. coli” value is “not soluble”.
Regarding “MRRKIMMATLIVIAVNFIWSGQPVKACTRAVYIGPDNMVITGRTMDWKEDIQSNLYLFPRGIKRAGYNKGNTVEWISKYGSIVATGYDIGTCDGMNEKGLVASLLFLPESIYVRPNDTRPVMGISIWTQYVLDNFATVSEAVEELKKQTFRIDAPDMPNGSASTLHMAITDETGNSAVLEYIDGNLIIHEGKEYQVMTNSPRYDLQLAVNDYWKEVGGLNMLPGTNRSSDRFVRASFYIHAIPQTSDAKIAVPSVLSVMRNVSVPFGITTLDKPYISSTRWRSVSDQKNRVYYFESTLTPNLFWIDLHKVDFSPNASIKKLSLTHGEVYAGDVVKDFKDSRSFTFMFELPK”, the “soluble on expression in E. coli” value is “not soluble”.
Take “MRRKMERIALIEDDKDLAFLVKLNLEREGFEVEHFERATPFFKFISENSVDLILIDIMLPDLDGFRIANFLKSRADLKEIPVIFITAKGEEEDKLKGFELGADDYITKPFSMKELIARVRAVLKRYKKVSESKVLKYEGVELDTERQKLFVDGREVYLTPAEFKILKTLMENFGRPVSRSSLVEKLWDYERETTERAIDVHVKHIRDKLGKYKGLIKTVRGVGYKFEN”: the “soluble on expression in E. coli” value is “soluble”.
Turning to “MRRKSVLYLEVADQIKEDILSGKYPVGTFLPTETELEELFNVSKITIRRAIEMLATEEFVEKKSGRGTTVLSNRPYNKLSKAGTFTEFLNESGQKVTKKVLQVENLTLSKEMPAYQFLGEEVVHLSRLYLIDEQPYIYFNYYLPAAMKDVSLTEYKEESLYRLMDRHAIEIYKFEDRFEVATLTEAEQKMLQTTETTGLKRIRRSLSPTGRCVEYSEAIYNTKIHPYVIEYEA”, the “soluble on expression in E. coli” value was “not soluble”.
For “MRRLLTLWVLGLGALAQVPVGQVATRDVHALLWLPDGRLLFGHHDGLQVSEDEGRTWRDLVRKTGFDAMEHSFWRGDRLLAAEHWVLSESRDGGKTWRSFRPRGLPALDLHGYAASGGLHFALEATHGYFVSEDGGKTFKSTAPKGLPKAGMAAMVFQGKTLYVAPMGQGLYQSSDGGRTFTQVPTPEREIYALATGAGTLYLGGKTGLWQRTPAGWKRLWQGAVLALAAHPQEAGRLVFIDGQERVWKLP” the value was “soluble”.
Then “MRRRRRRDGFYLAPDFRHREAEDMAGVFDIDLDQPEDAGSEDELEEGGQLNESMDHGGVGPYELGMEHCEKFEISETSVNRGPEKIRPECFELLRVLGKGGYGKVFQVRKVTGANTGKIFAMKVLKKAMIVRNAKDTAHTKAERNILEEVKHPFIVDLIYAFQTGGKPYLILEYLSG”, with “soluble”; and “MRRSKMTYLIGVDCGGTHIVGQTWTTAPEHLVQSVTGGPGNVVLDYSAAVTNLTTVLDQLTAAIPASQLGLILIGIAGIETAGRADQVQQTITQRYHANTQVISDAKLALLNGLAGADGALVIAGTGSVVYGRQAGKFLRVGGWGYVLGDEGSAYDISKRALKQVLTQTDNGQTSQLTAPLLAQLKVTDIAAAVQKFYAQDRQTNAQLAQLIAKLAEQQNSEAITVLVTSAQALAQQVVTLYQRFAESWPQRVALSGSVLQHNRLVRDTLTTTVHQSIPTIAFNDITTNNAHAVIYWHRWTQEEINSLEHHHHHH”, with “not soluble”.
For “MRRVDQPRPPGTPFGLREQTTSNADAPARTAPPAHPAPERPTGMLGGLTRYVPGDRSGRPPAMPAAAETSRRPTTSARPLPYGGSGSAARMNEAAGHPLRMPQLPQLSDIERARFHSVTTDSQHLRPVRPRMPPPVGASPLRRSTALRPYHDVLSQWQRHYNADRNRWHSAWRQANSNNPQIETRTGRALKATADLLEDATQPGRVALELRSVPLPQFPDQAFRLSHLQHMTIDAAGLMELPDTMQQFAGLETLTLARNPLRALPASIASLNRLRELSIRACPELTELPEPLASTDASGEHQGLVNLQSLRLEWTGIRSLPASIANLQNLKSLKIRNSPLSALGPAIHHLPKLEELDLRGCTALRNYPPIFGGRAPLKRLILKDCSNLLTLPLDIHRLTQLEKLDLRGCVNLSRLPSLIAQLPANCIILVPPHLQAQLDQHRPVARPAEPGRTGPTTPALSPSAAGDRAGPSSSATASELLLTAALERIEDTAQAMLSTVIDEERNPFLEGAPSYLPGKRPTDVTTFGQVPALRDMLAESRDLEFLQRVSDMAGPSPRIEDPSEEGLARHYTNVSNWKAQKSAHLGIVDHLGQFVYHEGSPLDVATLAKAVQMWKTRELIVHAHPQDRARFPELAVHIPEQVSDDSDSEQQTSPEPSGHQ”, the “soluble on expression in E. coli” value is “soluble”.
